Assay results from patent publication US20230390369A1.

Biological target: human PD-L1 on antigen-presenting cells of the Promega J1250 assay (human) (UniProt Q9NZQ7)
Assay: cell-based or functional assay

Luminescence (RLU) at 0.1 µg/mL: 241000 RLU
Luminescence (RLU) at 20 µg/mL: 1.47e+06 RLU
Substance: atezolizumab (antibody)
